# Experiments:
# SDF1-α = biological target: T1, SDF1-α (Homo sapiens, UniProt P48061); experiment: Micro-array analysis of chemokine binding peptides: SDF1-α
# T1 construct: purchased 300-28a
# Method in brief: (§1)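 Phage-presented peptides (10^7 pfu/μl in wash buffer) were incubated 1 h at room temperature on blocked slides carrying chemokine spots at 25 or 50 μg/ml. After anti-M13 and Cy3-labelled secondary antibody staining, slides were laser-scanned and spot fluorescence quantified as relative binding.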
# MDC 69 = biological target: T2, MDC 69 (Homo sapiens, UniProt O00626); experiment: Micro-array analysis of chemokine binding peptides: MDC 69
# T2 construct: MDC(69aa), (CCL22 cat.no.300-36A); purchased 300-36A
# T2 sequence (O00626 25-93): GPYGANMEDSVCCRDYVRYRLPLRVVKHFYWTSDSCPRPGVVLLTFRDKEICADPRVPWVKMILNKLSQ
# Method: (§2) (1) Printing: Chemokine (CK) solution (in water) was serially diluted with Print Reagent (GenTel BioSurfaces USA) to final concentrations of 50 μg and 25 μg/ml. BSA/BSA-Biotin control solutions (in water) were diluted with Print Reagent to 100 μg/ml. Amplified stock of M13 phage control (M13KEgIII Cloning Vector, New England Biolabs, Cat.No.E8101S) was stored in Tris Buffered Saline (TBS; pH7.5, 4° C.) and diluted with Print Reagent to the working titre (10^8 pfu/μl). An automated spotting robot (16 pin print tool, 0.4 mm head; BioRobotics, UK) was used to print the CK/BSA control/M13 control, 5 repeats per sample (CK 25 μg/ml and 50 μg/ml; BSA 100 μg/ml; M13 20 μl), on PATH Protein Microarray Slides (GenTel, Prod.No. 2-1005/-1025) at […], and 50-70% relative humidity. Printed micro-array slides were stored at Room Temperature (RT) or 4° C. for at least 24 h before use.
# (§3) (2) Blocking: Block Buffer (500 μl/partition; PATHblock, GenTel, Prod.No. 2-1014) was applied to the slide for 1 hour at room temp (RT). After removal of Block Buffer, the slide was air dried for 25 minutes;
# (§4) (3) Phage Presented Peptide Binding: Amplified recombinant phage stock was stored in TBS and diluted with Wash Buffer to working titer (10^7 pfu/μl). Recombinant phage suspension (300 μl) was applied per partition and incubated at RT for 1 hour with gentle agitation.
# (§5) (4) First Washing: The slides were washed twice with Wash Buffer 300 μl/partition).
# (5) Primary Antibody (Ab) Labeling: The slides were incubated with the Primary Ab (1 mg/ml diluted ×2500 (Wash Reagent), 300 μl; Mouse Anti-M13 monoclonal Ab; Amersham Biosciences, UK; Product Code 27-9420-01) for 45 minutes at RT. […]
# (§6) (11) Analysis: Quantitative analysis of micro-array was performed by the SpotReader program of Niles Scientific (USA) and presented as Relative Fluorescence (RF) as a function of CK concentration. Micro-array readout (Cy3 fluorescence) was quantified to determine the relative binding affinities of a CBP for the CKs and by inference, the specificity of the CBP for binding to a CK.
# SDF1 = experiment: Micro-array analysis of chemokine binding peptides: SDF1 (isoform not given)
# Method: as §2, §3, §4, §5
# (5) Primary Antibody (Ab) Labeling: The slides were incubated with the Primary Ab (1 mg/ml diluted ×2500 (Wash Reagent), 300 μl; Mouse Anti-M13 monoclonal Ab; Amersham Biosciences, UK; Product Code 27-9420-01) for 45 minutes at RT.
# (6) Second Washing: The slides were washed twice with Wash Buffer (300 μl/partition).
# (7) Secondary Ab Labeling: The slides were incubated with Secondary Ab (1.5 mg/ml diluted ×5000 (Wash Reagent), 300 μl; Cy3-conjugated AffiniPure Goat Anti-Mouse IgG; Jackson ImmunoReserch Labs, USA; Product Code 115-165-062).
# (8) Third Washing: The slides were washed twice with Wash Buffer (300 μl/partition).
# (9) Rinse: the slides were rinsed twice with Rinse Buffer (PATHrinse, GenTel, Prod.No. 2-1018) then dried well.
# (10) Scanning: The peptide-bound, labeled slide was scanned (Laser Intensity 80%, Gain 80%, Resolution 10 μm) with a ScanArray Life Scanner (Packard BioChip Technologies, USA).
# as §6
# MCP-1 = biological target: T3, MCP-1 (Homo sapiens, UniProt P13500); experiment: Micro-array analysis of chemokine binding peptides: MCP-1; details: for binding to MCP-1 with relatively high affinity (Relative Fluorescence Units): limit = start of the upper 75% of that peptide's response range
# T3 construct: purchased 300-04
# Method in brief: as §1
# Mig = biological target: T4, Mig (Homo sapiens, UniProt Q07325); experiment: Micro-array analysis of chemokine binding peptides: Mig
# T4 construct: purchased 300-26
# T4 sequence (Q07325 23-125): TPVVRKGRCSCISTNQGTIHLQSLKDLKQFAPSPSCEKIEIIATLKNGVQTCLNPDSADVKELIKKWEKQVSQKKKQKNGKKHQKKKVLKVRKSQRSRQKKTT
# Method in brief: as §1
# [1] = tested on: Adjuvant-Induced Arthritis (AIA) rats; experiment: Adjuvant Induced Arthritis (AIA) rat model, Clinical Score; assay type: in vivo; details: for most efficacious of the three doses: 2.5 μg, 25 μg and 250 μg IP on days 7-18; for day of maximal anti-inflammatory effect / maximal anti-inflammatory effect: 25 μg IP on days 7-18
# Method: Peptides were tested in a rat model of AIA for their anti-inflammatory effects.
# Disease Induction: AIA was induced in female Lewis rats aged 7-8 weeks by injection of heat-killed Mycobacerioum tuberculosis (Mt strain H37Ra, Difco Laboratories, USA) dispersed in incomplete Freund's adjuvant to a final concentration of 10 mg/ml (100 μl) at the base of the tail on day 0.
# Measurement: Clinical Score (CS, 0-4) for each limb based on (a) joint inflammation, (b) redness, (c) deformity.
# Efficacy Protocol 1 (5 rats per group). Peptide/control compound was injected intra-peritoneally (IP, 200 μl) on days 7-11 and 14-18.
# Rats were sacrificed (CO2 inhalation) on day 43.
# Efficacy Protocol 2 (8 rats per group). Group 1: peptide/PBS was injected intra-peritoneally (IP, 200 μl) on days 7-18; Group 2: PBS was injected IP on days 7-18; Group 3: Dexamethasone (Dexa) was injected IP on days 11 (Clinical Score (CS)1) and 13. Rats were sacrificed on day 43.
# Combination Efficacy Protocol 1 (8 rats per group). Group 1: peptide injected IP on days 7-18; Group 2: PBS injected IP on days 7-18; Group 3: Dexa injected IP on day 11 (CS 1) and day 13; Group 4: Dexa injected IP on days 11 and 13 then peptide injected on days 14-22; Group 5: Dexa injected IP on days 11 and 13 then PBS injected on days 14-22.
# (§7) Combination Efficacy Protocol 2 (8 rats per group). Group 1: peptide injected IP on days 7-18; Group 2: PBS injected IP on days 7-18; Group 3: Dexa injected IP on day 11 (CS 1) and day 13 then PBS on days 14-22; Group 4: PBS injected IP on days 7-10,12,14; Dexa injected on days 11, 13. Peptide injected on days 15-19.
# as §7, with “Protocol 3” for “Protocol 2”, “4: peptide” for “4: PBS”
# Control Reagents for Adjuvant Induced Arthritis: Anti-Inflammatory Control: Dexamethasone Sodium Phosphate (Dexacort Forte, Teva) was dissolved in Phosphate Buffer Saline (PBS, GIBCO) to a final concentration of 1 mg/ml and injected in 200 μl (200 μg).
# Negative Control: Phosphate Buffer Saline (PBS).
# Eotaxin = biological target: T5, Eotaxin (Homo sapiens, UniProt P51671); experiment: Micro-array analysis of chemokine binding peptides: Eotaxin
# T5 construct: purchased 300-21
# Method in brief: as §1
# [2] = limit = start of the upper 75% of that peptide's response range
# T3 sequence (P13500 24-99): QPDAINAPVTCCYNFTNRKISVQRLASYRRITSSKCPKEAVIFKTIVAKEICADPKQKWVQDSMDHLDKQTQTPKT
# T1 sequence (P48061 22-89 limits assumed): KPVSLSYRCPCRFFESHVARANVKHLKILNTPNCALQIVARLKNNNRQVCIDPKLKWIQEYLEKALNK
# Sequence of SDF1 (P48061 22-89 limits assumed): as above
# T5 sequence (P51671 24-97): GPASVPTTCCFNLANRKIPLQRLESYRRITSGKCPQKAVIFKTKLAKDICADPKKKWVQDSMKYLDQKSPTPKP
sequence,measurement,setting,value
WVFGAAMCK [Ph-p8.8],"binding to SDF1-α, stated in words",SDF1-α,bound
same,"binding to MDC 69, stated in words",MDC 69,bound
same,"binding to SDF1 (isoform not given), stated in words",SDF1,bound specifically and differentially
same,"binding to MCP-1, stated in words",MCP-1,bound specifically and differentially
same,binding to MCP-1 with relatively high affinity (Relative Fluorescence Units),MCP-1,"> 15,000 RFU"
same,"binding to Mig, stated in words",Mig,bound
same,most efficacious of the three doses,[1],25 µg
same,day of maximal anti-inflammatory effect,[1],18 days
same,maximal anti-inflammatory effect,[1],20%
same,"binding to Eotaxin, stated in words",Eotaxin,bound
WVFGNAMCK [P8],"binding to SDF1 (isoform not given), stated in words",SDF1,bound specifically and differentially
same,most efficacious of the three doses,[1],25 µg
same,day of maximal anti-inflammatory effect,[1],~17 days
same,maximal anti-inflammatory effect,[1],17%
DYDYGAPC [Ph-p30],"binding to SDF1-α, stated in words",SDF1-α,bound
same,"binding to MDC 69, stated in words",MDC 69,bound
same,binding to MCP-1 with relatively high affinity (Relative Fluorescence Units),MCP-1,"> 15,000 RFU"
same,binding to Mig with relatively high affinity (Relative Fluorescence Units),Mig; [2],"> 15,000 RFU"
same,binding to Eotaxin with relatively high affinity (Relative Fluorescence Units),Eotaxin; [2],"> 15,000 RFU"

# Reference: patent US12072338B2, “Pharmaceutical peptides for the treatment of inflammatory diseases” (PROTAGONISTS LTD., priority 2007, dated 2024)
